This is an account of results in patent publication US8263074B2, “Fibroblast growth factor receptor-1 inhibitors and methods of treatment thereof” (ImClone LLC, priority 2003, dated 2012).

A value given as a limit tells only on which side of the number the result lay.

One data set has as its target T1, FGFR-1c (Homo sapiens, UniProt P11362).
T1 construct: purchased R&D Systems
The data set can be described thus: BiaCore binding kinetics. As to conditions: BiaCore biosensor; read-out: Binding Kinetic (Kd), FGFR-1c.

The target in a further data set is T2, FGFR-2c (Homo sapiens, UniProt P21802).
T2 construct: purchased R&D Systems
T2 sequence (P21802 22-821): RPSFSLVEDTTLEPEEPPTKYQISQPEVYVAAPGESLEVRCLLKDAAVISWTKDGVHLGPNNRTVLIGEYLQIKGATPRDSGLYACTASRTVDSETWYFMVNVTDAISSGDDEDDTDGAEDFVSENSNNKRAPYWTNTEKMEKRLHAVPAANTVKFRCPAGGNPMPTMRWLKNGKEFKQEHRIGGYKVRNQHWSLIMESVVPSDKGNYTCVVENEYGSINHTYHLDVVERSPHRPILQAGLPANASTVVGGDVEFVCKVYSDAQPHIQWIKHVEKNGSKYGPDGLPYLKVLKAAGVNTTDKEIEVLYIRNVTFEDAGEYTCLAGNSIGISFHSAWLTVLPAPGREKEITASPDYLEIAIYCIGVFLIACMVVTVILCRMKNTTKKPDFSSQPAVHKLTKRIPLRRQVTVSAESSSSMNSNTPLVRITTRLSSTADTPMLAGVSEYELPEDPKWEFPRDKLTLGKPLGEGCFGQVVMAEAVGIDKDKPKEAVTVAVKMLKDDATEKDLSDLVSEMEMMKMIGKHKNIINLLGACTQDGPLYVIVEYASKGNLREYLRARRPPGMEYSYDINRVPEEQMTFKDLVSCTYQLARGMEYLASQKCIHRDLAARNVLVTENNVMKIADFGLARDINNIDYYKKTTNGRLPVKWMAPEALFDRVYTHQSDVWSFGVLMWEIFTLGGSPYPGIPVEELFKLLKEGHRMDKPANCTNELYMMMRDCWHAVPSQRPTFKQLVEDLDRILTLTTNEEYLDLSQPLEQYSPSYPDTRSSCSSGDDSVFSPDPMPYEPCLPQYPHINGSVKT
Nature of the data set: BiaCore binding kinetics. The settings on record: BiaCore kinetic analysis.

The target in a further data set is T3, FGFR-1(IIIb) (Homo sapiens, UniProt P11362).
T3 construct: purchased R&D Systems
T3 sequence (P11362 22-822 isoform P11362-19 limits assumed): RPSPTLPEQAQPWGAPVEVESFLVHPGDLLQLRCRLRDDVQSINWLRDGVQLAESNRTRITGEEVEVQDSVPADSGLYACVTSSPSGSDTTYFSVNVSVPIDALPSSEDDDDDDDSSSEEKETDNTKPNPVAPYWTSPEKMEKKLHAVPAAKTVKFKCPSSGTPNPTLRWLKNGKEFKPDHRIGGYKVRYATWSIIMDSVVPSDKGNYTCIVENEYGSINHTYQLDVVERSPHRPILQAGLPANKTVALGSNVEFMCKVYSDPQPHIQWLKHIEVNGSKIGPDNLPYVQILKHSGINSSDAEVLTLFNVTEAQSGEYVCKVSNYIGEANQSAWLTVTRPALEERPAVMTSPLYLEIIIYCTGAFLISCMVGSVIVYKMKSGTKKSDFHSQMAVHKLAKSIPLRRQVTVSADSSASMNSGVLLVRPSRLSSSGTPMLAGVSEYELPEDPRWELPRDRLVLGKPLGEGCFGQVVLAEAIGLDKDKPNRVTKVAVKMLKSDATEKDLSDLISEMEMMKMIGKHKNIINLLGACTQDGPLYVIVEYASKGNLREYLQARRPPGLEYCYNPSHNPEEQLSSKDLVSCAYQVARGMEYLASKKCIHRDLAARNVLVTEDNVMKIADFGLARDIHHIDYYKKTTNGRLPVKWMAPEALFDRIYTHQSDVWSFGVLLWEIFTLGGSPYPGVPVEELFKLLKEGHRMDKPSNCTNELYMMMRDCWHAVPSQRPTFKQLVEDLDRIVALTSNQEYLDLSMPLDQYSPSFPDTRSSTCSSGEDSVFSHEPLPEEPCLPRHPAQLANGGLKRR
The data set can be described thus: ELISA binding assay. As for the experimental part: (§1) Recombinant FGFRs (R&D systems) at a concentration of 1 μg/ml in PBS were coated on 96-well plates at room temperature for 2 hrs. The plates were washed 3 times with 0.2% Tween20/PBS, and blocked with 5% milk/PBS for 2 hrs before use. FR1-H7 or FR1-A1 was added to the plate and serially diluted in 0.2% Tween20/PBS. The plate was incubated at room temperature for 2 more hrs. The captured antibodies were detected using an anti-human light chain monoclonal antibody conjugated with […] (Pierce Biotechnology, Rockford, Ill.) solution prepared according to supplier's instructions.

The next data set concerns other FGFRs. Nature of the data set: ELISA binding assay. As for the experimental part: as §1
Data set [1] has as its target T4, FGFR-1(IIIc) (Homo sapiens, UniProt P11362). Nature of the data set: ELISA binding assay. Also on record: purchased R&D Systems. As for the experimental part: as §1
Data set [2] is described as follows: Body weight, food intake and adipose tissue in db/db mice. Type of data set: in vivo. The settings on record: 4 mg/kg s.c. As for the experimental part:
The db/db 7 week old mice were injected subcutaneously with 4 mg/kg antibody on a Monday, Wednesday, and Friday schedule with body weights being measured before each injection and on day 7. Food intake was monitored as well on days 1, 2, 3, 4, and 7. The db/db animals were sacrificed on day 7 and their intrascapular brown fat, epididymal white adipose tissue, and inguinal subcutaneous white adipose tissue were sampled and weighed.

Data set [3] can be described thus: Repeated-dose study in female athymic nude mice: body weight, food intake, rearing, blood glucose. Type of data set: in vivo. The settings on record: day 64.
The next data set addresses T5, FGFR-3b (Homo sapiens, UniProt P22607).
T5 construct: purchased R&D Systems
The data set can be described thus: BiaCore binding kinetics. The settings on record: BiaCore kinetic analysis.

Another data set has as its system human adipocytes. The data set can be described thus: Adipocyte proliferation assay (3H-thymidine). Format: cell-based. As to conditions: 15 ng/ml FGF-2, 60 hrs. As for the experimental part: Two-week-old (after induced differentiation) grade 2 human adipocytes were obtained from Zen-Bio Inc. (Research Triangle, N.C.), and were maintained in the shipping media in a 96-well tissue culture plate. To evaluate the effects of FGF-2 on the proliferation of adipocytes, recombinant FGF-2 (R&D systems) was serially diluted and added to the wells of the plate. The cells were allowed to grow in the incubator for 60 hrs, before the level of ^3H-thymidine incorporation was determined. To evaluate the effects of FR1-H7 on adipocytes proliferation, the antibody was serially diluted and added to the cells before addition of recombinant FGF-2 to a final concentration of 15 ng/ml. ^3H-thymidine incorporation was determined after 60 hrs of incubation.

Data set [4] can be described thus: Body weight in C57 black mice. As to conditions: after 4 treatments. Format: in vivo. As for the experimental part: The antibodies weight-reducing effects on other strains of mice, C57 black mice and db/db mice were tested (The Jackson Laboratory, Bar Harbor, Me.). The C57 mice were injected with 0.8 mg/kg, 4 mg/kg, and 40 mg/kg antibody and saline on a Monday, Wednesday, Friday, and following Monday rotation schedule with body weights being measured before each injection and on day 9.

Data set [5] can be described thus: Single-dose short-term study in female athymic nude mice: body and tissue weights, serum chemistry. Type of data set: in vivo. On the procedure: Short-term effects of the FR1-H7 antibody on serum levels of insulin, leptin, glucose, and triglycerides were examined by injecting 4 mg/kg antibody or control vehicle into female athymic nude mice. Samples were collected and evaluated before treatment and 6, 24, and 48 hours after treatment. Alanine aminotransferase (ALT), […], blood urea nitrogen (BUN), total serum proteins, and serum albumin levels were measured using serum samples taken 48 hours after treatment. The mice were sacrificed and weights of their left parametrial fat pad, left tibialis anterior muscle, left posterior liver lobe, and spleen were also taken.

Data set [6] deals with T4, FGFR-1(IIIc). The data set can be described thus: Cell-based blocking assay (125I-FGF-2 binding to FGFR-1(IIIc) expressing L6 cells). Further details: expressed in transfected cells; host or cells: L6 (ATCC), pBABE retroviral vector. The settings on record: at 200 nM antibody. As for the experimental part: An FGFR-1(IIIc) expressing cell line was constructed by retro-viral transfecting L6 (ATCC, Manassas, Va.) using a pBABE vector that has a puromycin resistant gene (Invitrogen). Transfected cells were cultured in 10% FBS, DMEM (Invitrogen) in 6-well tissue culture plates until reaching confluency, Before the blocking experiment, cells were serum starved for 8-24 hrs at 37° C. in DMEM medium that contains 0.1% FBS and 5 μg/ml heparin. Before the addition of any reagents, plates were put on ice for 1 hr to minimize receptor internalization. For binding experiment, iodinated recombinant FGF-2 was added at various concentrations to the wells of the plates. For blocking experiments, serially diluted FR1-H7 antibody was added and incubated with the cells on ice for 1 hr before iodinated recombinant FGF-2 was added to each well to a final concentration of 15 ng/ml. Binding was for 1 hr at 0-4° C., after which time the solutions were aspirated and the plates were washed 5 times with ice-cold PBS. Cells were lyzed with 0.5 ml ice-cold cell lysis buffer for 30 minutes. Radioactivity of the cell lysates was detected using a Wizard 1470 automatic gamma counter (Turku, Finland). Non-specific interaction was determined in a binding experiment in which iodinated FGF-2 was incubated with the cells in presence of 200 fold excess of cold ligand.

T4 sequence (P11362 22-822): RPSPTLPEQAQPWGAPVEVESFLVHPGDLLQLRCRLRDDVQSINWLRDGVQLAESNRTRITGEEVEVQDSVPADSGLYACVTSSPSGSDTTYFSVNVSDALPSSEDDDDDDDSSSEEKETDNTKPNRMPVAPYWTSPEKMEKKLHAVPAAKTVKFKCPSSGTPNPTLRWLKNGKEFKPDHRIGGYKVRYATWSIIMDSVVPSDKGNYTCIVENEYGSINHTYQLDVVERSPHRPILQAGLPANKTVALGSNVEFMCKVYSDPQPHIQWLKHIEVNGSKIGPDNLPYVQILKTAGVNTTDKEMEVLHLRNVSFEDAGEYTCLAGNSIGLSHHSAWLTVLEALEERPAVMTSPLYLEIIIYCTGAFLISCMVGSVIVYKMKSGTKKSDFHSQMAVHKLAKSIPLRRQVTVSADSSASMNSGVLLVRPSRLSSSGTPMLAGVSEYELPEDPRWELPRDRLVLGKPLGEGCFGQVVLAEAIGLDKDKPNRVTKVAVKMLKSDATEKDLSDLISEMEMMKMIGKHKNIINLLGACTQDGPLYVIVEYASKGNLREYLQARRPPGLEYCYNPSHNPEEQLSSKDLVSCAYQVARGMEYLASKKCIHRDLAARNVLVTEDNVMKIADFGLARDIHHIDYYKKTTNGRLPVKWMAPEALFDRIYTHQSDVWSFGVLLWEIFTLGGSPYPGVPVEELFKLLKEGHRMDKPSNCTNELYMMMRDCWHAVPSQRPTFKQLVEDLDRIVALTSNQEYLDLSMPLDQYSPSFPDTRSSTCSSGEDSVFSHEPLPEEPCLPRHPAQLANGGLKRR
T1 sequence (P11362 22-822): as above
T5 sequence (P22607 23-808 isoform P22607-2 limits assumed): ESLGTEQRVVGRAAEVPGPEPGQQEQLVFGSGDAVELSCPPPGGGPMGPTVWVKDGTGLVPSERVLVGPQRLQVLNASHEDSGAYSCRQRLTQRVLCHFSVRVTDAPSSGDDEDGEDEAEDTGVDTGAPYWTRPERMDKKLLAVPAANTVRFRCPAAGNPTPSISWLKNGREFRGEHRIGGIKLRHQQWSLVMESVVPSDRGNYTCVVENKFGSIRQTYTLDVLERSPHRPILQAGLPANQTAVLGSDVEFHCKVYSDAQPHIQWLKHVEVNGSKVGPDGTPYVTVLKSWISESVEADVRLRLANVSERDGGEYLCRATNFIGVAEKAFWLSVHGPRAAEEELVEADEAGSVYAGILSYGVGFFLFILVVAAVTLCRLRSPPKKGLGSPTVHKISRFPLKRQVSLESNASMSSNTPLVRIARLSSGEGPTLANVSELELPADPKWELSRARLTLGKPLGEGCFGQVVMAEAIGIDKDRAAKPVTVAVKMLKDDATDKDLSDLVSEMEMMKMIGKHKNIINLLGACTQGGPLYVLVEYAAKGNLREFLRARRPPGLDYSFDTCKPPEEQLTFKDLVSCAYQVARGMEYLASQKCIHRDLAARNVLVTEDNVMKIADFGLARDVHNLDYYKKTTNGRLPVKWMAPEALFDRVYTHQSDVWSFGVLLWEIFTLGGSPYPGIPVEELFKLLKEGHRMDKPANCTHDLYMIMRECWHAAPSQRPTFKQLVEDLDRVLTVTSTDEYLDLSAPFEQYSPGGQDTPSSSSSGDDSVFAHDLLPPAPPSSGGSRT

B1: FR1-H7: human monoclonal antibody from phage Fab library, specific for FGFR-1(IIIb) and/or FGFR-1(IIIc), and/or FGFR-4(IIIc); VH/VL SEQ ID NOS:7, 8 (antibody, listed as Homo sapiens)
VH: MAEVQLVQSGAEVKKPGASVKVSCKVSGYTFTDYYMHWVQQAPGKGLEWMGLVDPEDGETIYAEKFQGRVTITADTSTDTAYMELSSLRSEDTAVYYCARDDYMDVWGKGTLVTVSSASTKGP
VL: LETTLTQSPDTLSLSPGEGATLSCRASQSVSGSALAWYQQKPGQAPRLLIYDASSRATGVPDRFSGSGSGADFSLTISRLEPEDFAVYSCQQYGSSPLTFGPGTKVDVKRTVAAPSVFIFPPSDEQLKSGTASVVCLLNNFYPREAKVQWKVD
As for B1, in the data set with FGFR-1c, the Kd amounted to 0.04 nM. The same molecule showed a Kd in the data set with FGFR-2c above 1000 nM. Besides, in the data set with FGFR-1(IIIb), the “binding to FGFR-1(IIIb)” value is on record as “strong affinities”. The “binding to the other FGFRs” value with other FGFRs is listed as “does not recognize”. The “binding to FGFR-1(IIIc)” value with FGFR-1(IIIc) [1] is given as “strong affinities”. Besides, in data set [2] (7-day period), the food intakes result is reported as “gradual reduction”. Also, the “weight reduction of the total body weight” value in [2] (Day 7) was “approximately 10%”. In addition, in data set [2] (day 7), the “weight of intrascapular brown fat tissue” value is on record as “significant reduction”; the “weights of epididymal white adipose tissue and inguinal subcutaneous white adipose tissue” value was “changed little”. The “non-fasted blood glucose after weight recovery” value in [3] was “restored to normal range”. This molecule yielded a Kd with FGFR-3b above 1000 nM. For the same molecule, the “FGF-2-stimulated proliferation of adipocytes” value in the data set on human adipocytes was “inhibited the FGF-2-stimulated proliferation of adipocytes in a dose dependant manner”. Moreover, the “weight reduction compared to the starting weights” value in data set [4] (0.8 mg/kg) is recorded as “approximately 5%”. Besides, the “weight reduction compared to the starting weights” value in data set [4] (4 mg/kg) is reported as around 16%. The “weight reduction compared to the starting weights” value in data set [4] (40 mg/kg) is around 16%. Further, in [5] (single 4 mg/kg), the serum insulin level entry is “significantly reduced”, the serum leptin level entry was “significantly reduced” and the serum triglycerides level result is on record as “significantly reduced”. Moreover, in [5] (single 4 mg/kg s.c., 48 hours), the “reduction of averaged body weight compared to control groups” value is recorded as “approximately 6%”; the “weight reduction of parametrial fat pad” value is recorded as “approximately 60%”; the “weights of muscle, liver, and spleen” value is listed as “appear to be normal”. Also, the “levels of ALT, CPK, BUN, total serum proteins, and serum albumin versus control” value in data set [5] (single 4 mg/kg, 48 hours) is “no significant differences”. For the same molecule, the serum glucose level entry in data set [5] (single 4 mg/kg, 48 hours after treatment) is recorded as “did not affect”. The “blocking of specific 125I-FGF-2 binding to the cells” value with FGFR-1(IIIc) [6] is recorded as “near completion”.
